# Source: publication PMC8605562, “MSMEG_3955 from Mycobacterium smegmatis is a FMN bounded homotrimeric NAD(P)H:Flavin mononucleotide (FMN) oxidoreductase” (BMC Microbiology, 2021)
# B1: MSMEG_3955 from Mycobacterium smegmatis, recombinant wild-type protein (enzyme, Mycobacterium smegmatis mc2 155, UniProt A0QZA6 1-334, looked up)
# chain: MNTHFPDTETIHAALALAMRAPSIHNSQPWQWRVGERSVHLYADLDRHLTSTDPDSRDLLLSCGAALHHCVIAFAALGWYASVHRLPNPAEPEHLASIELRRQTPTDLDIALAAAIPRRRTDRRHYSAWPVSHSDIAMMGARAARAGVMLRRVESLSRLQDIVAESIARHAADDGYLRELTAWSGKYASTAGVPARSAPKPEPGAPLSSRMFAGAALKQPDTGAGADEGAVVLALGTADDTRMSRLRAGEATSLILLTATAMGLATCPVTEPLEISETRDAVQAEVFGASAFPQMMLRVGWAPVNADPLPPTPRRHVADAVRWLDGSPFEPESE
# notes: MSMEG_3955, Mycobacterium smegmatis mc2 155, NADPH-dependent FMN oxidoreductase of the Acg family; gene amplified from genomic DNA with primers from the ATG to the stop codon (~1005 bp amplicon, ~36 kDa protein); tag removal is not described; also called protein MSMEG_3955; homologue of Rv3131; source: E. coli BL21 (DE3), pET-28a, purified (Ni-NTA)
# Target: the molecule itself
# Assay: native gel or EMSA; NATIVE-PAGE (12% in the methods, 10% in the legend of Fig. 3a) of purified protein loaded without any treatment, 10 ug (Fig. 3a) or 20 ug each of wild type and mutant (Fig. 2a); band at ~115 kDa against ~36 kDa on SDS-PAGE
protein,measurement,value
B1,stoichiometry N,3
